The record followed here is patent publication US10328114B2, “Lung injury repair compositions and methods” (University of Iowa Research Foundation, priority 2015, dated 2019).

This assay has as its target T1, PKCζ (Mus musculus, UniProt Q02956).
T1 construct: from tissue; host or cells: lungs of C57BL/6 mice (lung homogenates and frozen lung sections)
T1 sequence (Q02956 1-592): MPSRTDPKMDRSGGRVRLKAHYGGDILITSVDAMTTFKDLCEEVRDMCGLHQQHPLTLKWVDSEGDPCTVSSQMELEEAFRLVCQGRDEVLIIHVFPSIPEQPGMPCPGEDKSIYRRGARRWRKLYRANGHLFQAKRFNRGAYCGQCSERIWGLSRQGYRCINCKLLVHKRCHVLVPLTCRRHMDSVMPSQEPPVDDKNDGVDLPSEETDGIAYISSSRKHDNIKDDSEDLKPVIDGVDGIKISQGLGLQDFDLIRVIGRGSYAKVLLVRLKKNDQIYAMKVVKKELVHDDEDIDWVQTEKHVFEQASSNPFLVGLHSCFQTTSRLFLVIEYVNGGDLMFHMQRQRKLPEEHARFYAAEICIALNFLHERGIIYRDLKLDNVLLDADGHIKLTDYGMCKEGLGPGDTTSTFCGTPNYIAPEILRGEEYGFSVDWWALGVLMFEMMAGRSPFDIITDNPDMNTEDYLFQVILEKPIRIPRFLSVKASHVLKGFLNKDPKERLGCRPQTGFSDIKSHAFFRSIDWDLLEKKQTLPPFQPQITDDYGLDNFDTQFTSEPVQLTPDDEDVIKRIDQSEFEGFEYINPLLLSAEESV
Kind of assay: PKCζ activation (p-PKCζ) in lungs, bleomycin induced ALI mouse model, Western blot and immunofluorescence. Type of assay: in vivo. Conditions: for activation of PKC-ζ in vivo: lungs harvested at 1, 3 and 6 weeks, Western blot and immunofluorescence. As to the method:
Mice were randomly divided into four groups: (i) control: PBS plus DMSO (1 μl/mouse) (ii) PKC-ζ pseudosubstrate inhibitor (PKC-ζ ps) (1 μg/mouse suspended in DMSO), a pharmacological inhibitor that competes for the pseudosubstrate domain which give specificity to several PKCζ isoforms (Hofmann, J. (1997). “The potential for isoenzyme-selective modulation of protein kinase C.” FASEB J 11(8): 649-669); (iii) bleomycin: bleomycin suspended in PBS (4 U/kg); and (iv) Bleomycin+PKCζi: bleomycin (4 U/kg) plus (1 μg/mouse) PKCζi. The above conditions were administered intratracheally (50 μL) to 6-8 wk-old mice after 2-5 min of anesthesia with 4% isoflurane via a precision Fortec vaporizer (Cyprane, Keighley, UK). Treatment with DMSO or PKCζi was administered every 72 hours and followed for up to 6 weeks. At 1, 3, and 6 weeks mice were euthanized and lungs harvested.
Animal protocols were approved by the Institutional Animal Care and Use Committee at the University of Iowa. C57BL/6 mice (Jackson Laboratories, Bar Harbor, Me.) were anesthetized followed by intratracheal instillation of: (A) Control (Ctrl): 1 μl of DMSO (Sigma, St. Louis, Mo.) plus 49 μl of PBS; (B) Bleomycin (Bleo): 1 μl of DMSO plus 49 μl of bleomycin (APP pharmaceuticals, LLC Schaumburg, Ill.) dissolved in PBS (4 U/kg); (C) Bleomycin/PKCζi (Bleo/PKCζi): 1 μg of PKCζi (Calbiochem EMD Biosciences, San Diego, Calif.) solubilized in 1 μl of DMSO plus 49 μl of bleomycin (4 U/Kg) dissolved in PBS (Calbiochem EMD Biosciences, San Diego, Calif.). After this treatment, all mice were instilled (50 μl) every 72 hours with 1 μl of DMSO plus 49 μl of PBS in the Ctrl and Bleo group or with 1 μg of PKCζi dissolved in 1 μl of DMSO plus 49 μl of PBS in the Bleo/PKCζi group for the duration of the experiment. Mice were treated for up to 6 weeks (FIG. 1A). All conditions had between 4 to 6 animals.
Western blot analysis was performed using Phospho-(Ser) PKCζ substrate rabbit monoclonal antibody (Cell Signaling, Beverly, Mass.), total PKCζ rabbit polyclonal antibody (Santa Cruz Biotechnology, Dallas, Tex.) and mature surfactant protein C (SPC) rabbit polyclonal antibody (Seven Hill Bioreagents, Cincinnati, Ohio).
After dissection, immunofluorescence labeling was performed on frozen mouse lung tissue sections with polyclonal anti p-PKCζ (Santa Cruz Biotechnology, Dallas, Tex.) or monoclonal β4 antibody (Clone 346-11a, BD Biosciences, San Jose, Calif.) (23). In addition, Terminal deoxynucleotidyltransferase dUTP nick end labeling (TUNEL) staining was performed on week 1 mouse lung tissue sections (24).
A general note: Immunoblotting shows a protein as a band on a membrane.

Entries after “also recorded” stand apart in the source; their conditions may differ. *: point of attachment. Myristoyl = CCCCCCCCCCCCCC(=O)*

For “N-Myristoyl-Ser-Ile-Tyr-Arg-Arg-Gly-Ala-Arg-Arg-Trp-Arg-Lys-Leu-OH (Myristoyl-SIYRRGARRWRKL-OH; SMILES CCCCCCCCCCCCCC(=O)N[C@@H](CO)C(=O)N[C@H](C(=O)N[C@@H](Cc1ccc(O)cc1)C(=O)N[C@@H](CCCNC(=N)N)C(=O)N[C@@H](CCCNC(=N)N)C(=O)NCC(=O)N[C@@H](C)C(=O)N[C@@H](CCCNC(=N)N)C(=O)N[C@@H](CCCNC(=N)N)C(=O)N[C@@H](Cc1c[nH]c2ccccc12)C(=O)N[C@@H](CCCNC(=N)N)C(=O)N[C@@H](CCCCN)C(=O)N[C@@H](CC(C)C)C(=O)O)[C@@H](C)CC) [PKCζi]”, the “activation of PKC-ζ in vivo” value is “prevents activation of PKCζ in vivo”. Also, the “activation of PKC-ζ in vivo” value (listed as PKC-ζi) is “prevented the activation of PKC-ζ”. Further, the “p-PKCζ / total PKCζ, Western blot densitometry of lung homogenates” value (week 1, PKCζi 1 μg intratracheal every 72 hours, vs Bleo group) is listed as “prevented bleomycin induced increased ratio p-PKC/total PKCζ; also recorded: decreased p-PKCζ at week 1 compared to Bleo group”. Moreover, the “p-PKCζ immunostaining intensity in lung” value (week 3 and 6, vs bleomycin group) is “did not have any increase in p-PKCζ at week 3; also recorded: decreased intensity in the Bleo/PKCζi group compared to bleomycin group at week 3 and 6”.
